Measurements reported in patent US20220332804A1 (CSL INNOVATION, published 2022).
Changes are numbered by the printed parent chain.

What was measured:
Experiment in all cases: SPR, mAb captured, C2 mutant analyte;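 note: Anti-C2 mAbs captured on goat anti-human IgG Biacore CM5 chips, alanine or serine C2 surface mutants flowed over at 37 °C, double-referenced sensorgrams fitted to a 1:1 binding model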
[1] = molecular target: T1, human C2 L279A (human, UniProt P06681 21-752)
T1 sequence: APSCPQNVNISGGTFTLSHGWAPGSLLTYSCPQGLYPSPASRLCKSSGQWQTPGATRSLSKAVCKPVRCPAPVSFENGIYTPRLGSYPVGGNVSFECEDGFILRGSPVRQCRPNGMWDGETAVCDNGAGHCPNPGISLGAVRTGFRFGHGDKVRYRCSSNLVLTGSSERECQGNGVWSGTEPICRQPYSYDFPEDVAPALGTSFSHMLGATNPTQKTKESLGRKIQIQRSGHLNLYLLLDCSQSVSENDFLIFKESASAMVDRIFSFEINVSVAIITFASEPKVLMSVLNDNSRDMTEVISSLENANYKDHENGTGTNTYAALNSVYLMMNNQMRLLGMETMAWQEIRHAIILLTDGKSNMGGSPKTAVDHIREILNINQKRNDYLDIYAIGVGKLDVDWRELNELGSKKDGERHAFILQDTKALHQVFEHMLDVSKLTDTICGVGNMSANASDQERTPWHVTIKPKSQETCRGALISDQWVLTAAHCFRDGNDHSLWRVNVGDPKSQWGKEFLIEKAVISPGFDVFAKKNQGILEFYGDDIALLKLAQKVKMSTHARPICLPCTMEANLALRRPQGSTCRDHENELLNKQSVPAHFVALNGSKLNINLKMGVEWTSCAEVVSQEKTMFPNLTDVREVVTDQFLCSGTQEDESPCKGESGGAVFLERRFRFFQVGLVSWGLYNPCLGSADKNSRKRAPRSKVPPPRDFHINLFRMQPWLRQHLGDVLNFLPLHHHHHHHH

[2] = molecular target: T2, human C2 D417A (human, UniProt P06681 21-752)
T2 sequence: T1 sequence with A259L, D397A

[3] = molecular target: T3, human C2 A436S (human, UniProt P06681 21-752)
T3 sequence: T1 sequence with A259L, A416S

[4] = molecular target: T4, human C2 F437A (human, UniProt P06681 21-752)
T4 sequence: T1 sequence with A259L, F417A

B1: RF16-214 (antibody, V domains shown)
VH: EVQLLESGGGLVQPGGSLRLSCAASGFTFSWYQMMWVRQAPGKGLEWVSRIYPSGGGTAYADSVKGRFTISRDNSKNTLYLQMNSLRAEDTAVYYCARDAGYGDNWGQGTLVTVSS
VL: QSALTQPPSVSVSPGQTASITCSGDKLGEKYASWYQQKAGQSPVMVIYQDRKRPSGIPERFSGSNSGNTATLTISGTQAMDEADYYCQAWDTRAVVFGGGTKLTVLG
- Kd [1]: 240 nM
- Kd [2]: 56.4 nM
- Kd [3]: 31.2 nM
- Kd [4]: 381 nM
